# Measurements: article PMC6495647
# Experiments:
# [1] = biological target: MucA’ protein (plasmid pKM101 (host species not stated)); assay: SEC; Superdex 75 XK 16/60, 20 mM HEPES pH 7.4, 10% glycerol, 150 mM NaCl, 0.1 mM EDTA, 1 mM DTT; 1 ml of 2.5 mg/ml MucA’ applied; calibrated with protein standards
# RecA = RecA (UniProt P0A7G6); assay: SPR; another set of experiments; calculated KD for MucB and RecA; details not told
# [2] = biological target: β-subunit of DNA polymerase III holoenzyme of E. coli (E. coli) (UniProt P0A988); assay: SPR; BIAcore 2000, kinetic analysis at lower ligand densities (577 RU of immobilized β, 1036 RU of immobilized MucA’ on CM5); MucB in the mobile phase; BSA reference cell; apparent constants; data not shown
# β-subunit of DNA polymerase III holoenzyme of E. coli (E. coli), sequence (P0A988 whole entry): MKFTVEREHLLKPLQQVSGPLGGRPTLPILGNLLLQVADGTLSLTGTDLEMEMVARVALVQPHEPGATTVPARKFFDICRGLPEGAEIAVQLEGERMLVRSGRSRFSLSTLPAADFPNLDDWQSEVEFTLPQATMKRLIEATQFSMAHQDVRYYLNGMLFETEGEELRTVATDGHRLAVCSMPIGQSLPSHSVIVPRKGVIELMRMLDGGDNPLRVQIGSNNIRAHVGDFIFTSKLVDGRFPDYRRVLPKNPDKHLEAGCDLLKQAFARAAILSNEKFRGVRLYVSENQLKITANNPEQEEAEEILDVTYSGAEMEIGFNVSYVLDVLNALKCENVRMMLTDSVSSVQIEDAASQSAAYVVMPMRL
# RecA, sequence (P0A7G6 whole entry): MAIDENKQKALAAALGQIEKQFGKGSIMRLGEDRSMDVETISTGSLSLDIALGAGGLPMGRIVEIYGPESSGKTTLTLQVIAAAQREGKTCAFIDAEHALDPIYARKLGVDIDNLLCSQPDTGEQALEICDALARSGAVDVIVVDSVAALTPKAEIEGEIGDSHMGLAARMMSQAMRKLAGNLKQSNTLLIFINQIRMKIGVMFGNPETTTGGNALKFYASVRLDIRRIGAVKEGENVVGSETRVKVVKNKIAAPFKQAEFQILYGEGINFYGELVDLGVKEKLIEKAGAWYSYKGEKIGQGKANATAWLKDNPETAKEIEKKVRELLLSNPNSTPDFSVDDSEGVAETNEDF
Substance,stoichiometry N [1],Kd (RecA),Kd [2],amount bound (RU) [2],koff [2],kon [2]
MucA’ protein (natural protein),2,–,–,–,–,–
MucB protein (from UniProt P07375 1-420) (enzyme),–,2.41 nM,0.31 nM,349 RU,1.2e-05 s⁻¹,38700 M⁻¹ s⁻¹
